Patent US20090136936A1 (RESEARCH DEVELOPMENT FOUNDATION, published 2009)

B19: Recombinant human FcγRI/CD64, extracellular domain, glycosylated (receptor, UniProt P12314 16-292, looked up)
chain: QVDTTKAVITLQPPWVSVFQEETVTLHCEVLHLPGSSSTQWFLNGTATQTSTPSYRITSASVNDSGEYRCQRGLSGRSDPIQLEIHRGWLLLQVSSRVFTEGEPLALRCHAWKDKLVYNVLYYRNGKAFKFFHWNSNLTILKTNISHNGTYHCSGMGKHRYTSAGISVTVKELFPAPVLNASVTSPLLEGNLVTLSCETKLLLQRPGLQLYFSFYMGSKTLRGRNTSSEYQILTARREDSGLYWCEAATEDGNVLKRSPELELQVLGLQLPTPVWFH
notes: extracellular domain; also called FcγRIa; FcγRIa-FITC

How the values were obtained:
[1] = target: B19; assay: flow cytometry of spheroplasts displaying the Fc, labelled with FcγRIa-FITC [panel b]
[2] = target: B19; assay: flow cytometry of spheroplasts displaying the Fc clone, labelled with FcγRIa-FITC; the value is repeated on D00019 and D00020
[3] = target: B19; assay: SPR (BIAcore 3000), FcγRIa immobilized on CM-5
Protein A-FITC = Protein A-FITC (Staphylococcus aureus, UniProt P38507 37-477); assay: flow cytometry of spheroplasts, PMT 700V, TB with 0.5M trehalose, labeling with Protein A-FITC [panel a]
[4] = target: T1, extracellular domain of aglycosylated FcγRIIIa purified from E. coli inclusion bodies, FITC-labeled (human, UniProt P08637 17-208); assay: flow cytometry of spheroplasts displaying the Fc, labelled with FcγRIIIa-FITC
T1 construct: extracellular domain; also called FcγRIIIa-FITC

BSA = target: T2, BSA (Bos taurus, UniProt P02769); assay: fluorescence ELISA: BSA coated wells, FITC labeled FcγRIa serially diluted 4-fold [panel b]
T2 construct: also called BSA coated
T2 sequence (P02769 25-607 limits assumed): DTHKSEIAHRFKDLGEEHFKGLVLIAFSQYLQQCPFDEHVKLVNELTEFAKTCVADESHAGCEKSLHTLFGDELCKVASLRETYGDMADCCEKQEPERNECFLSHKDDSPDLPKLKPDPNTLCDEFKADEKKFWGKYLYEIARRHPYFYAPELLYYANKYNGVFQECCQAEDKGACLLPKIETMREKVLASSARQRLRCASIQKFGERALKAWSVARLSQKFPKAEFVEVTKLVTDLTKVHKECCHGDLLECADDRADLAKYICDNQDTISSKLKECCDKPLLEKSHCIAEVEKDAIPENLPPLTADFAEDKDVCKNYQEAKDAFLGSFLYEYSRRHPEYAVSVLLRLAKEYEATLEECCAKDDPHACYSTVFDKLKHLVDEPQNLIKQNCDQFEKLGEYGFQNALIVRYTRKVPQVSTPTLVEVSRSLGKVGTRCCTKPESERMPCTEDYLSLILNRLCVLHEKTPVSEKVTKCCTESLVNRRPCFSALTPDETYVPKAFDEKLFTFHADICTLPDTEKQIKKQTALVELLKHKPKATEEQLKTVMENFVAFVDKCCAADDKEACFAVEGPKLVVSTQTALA

T1 sequence (P08637 17-208): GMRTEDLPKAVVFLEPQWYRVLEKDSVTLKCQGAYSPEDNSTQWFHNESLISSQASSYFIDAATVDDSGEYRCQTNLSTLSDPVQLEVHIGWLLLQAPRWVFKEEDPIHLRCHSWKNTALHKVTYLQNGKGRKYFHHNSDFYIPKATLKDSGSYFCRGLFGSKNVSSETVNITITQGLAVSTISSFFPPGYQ

B1: Fc12 (N361D, E382V, M428I), aglycosylated Fc mutant (other)
chain: DKTHTCPPCPAPELLGGPSVFLFPPKPKDTLMISRTPEVTCVVVDVSHEDPEVKFNWYVDGVEVHNAKTKPREEQYNSTYRVVSVLTVLHQDWLNGKEYKCKVSNKALPAPIEKTISKAKGQPREPQVYTLPPSRDELTKDQVSLTCLVKGFYPSDIAVEWVSNGQPENNYKTTPPVLDSDGSFFLYSKLTVDKSRWQQGNVFSCSVIHEALHNHYTQKSLSLSPGK
- M (mean fluorescence intensity) [1]: 307

B2: Fc20 (N361D, F372L, E382V, M428I), aglycosylated Fc mutant (other)
chain: DKTHTCPPCPAPELLGGPSVFLFPPKPKDTLMISRTPEVTCVVVDVSHEDPEVKFNWYVDGVEVHNAKTKPREEQYNSTYRVVSVLTVLHQDWLNGKEYKCKVSNKALPAPIEKTISKAKGQPREPQVYTLPPSRDELTKDQVSLTCLVKGLYPSDIAVEWVSNGQPENNYKTTPPVLDSDGSFFLYSKLTVDKSRWQQGNVFSCSVIHEALHNHYTQKSLSLSPGK
- M (mean fluorescence intensity) [1]: 295

B3: Fc149 (E380D, E382V, N384R, S426V, M428L, E430D), aglycosylated Fc mutant (other)
chain: DKTHTCPPCPAPELLGGPSVFLFPPKPKDTLMISRTPEVTCVVVDVSHEDPEVKFNWYVDGVEVHNAKTKPREEQYNSTYRVVSVLTVLHQDWLNGKEYKCKVSNKALPAPIEKTISKAKGQPREPQVYTLPPSRDELTKNQVSLTCLVKGFYPSDIAVDWVSRGQPENNYKTTPPVLDSDGSFFLYSKLTVDKSRWQQGNVFSCVVLHDALHNHYTQKSLSLSPGK
- FACS mean value [2]: 140

B4: Fc102 (other)
Fc chain: DKTHTCPPCPAPELLGGPSVFLFPPKPKDTLMISRTPEVTCVVVDVSHEDPEVKFNWYVDGVEVHNAKTKPREEQYNSTYRVVSVLTVLHQDWLNGKEYKCKVSNKALPAPIEKTISKAKGQPREPQVYTLPPSRDELTKDQVSLTCLVKGFYPSDIAVEWVSNGQPENNYKTTPPVLDSDGSFFLYSKLTVDKSRWQQGNVFSCSVIHEALHNHYTQKSLSLSPGK
- FACS mean value [2]: 374

B5: Fc106 (E382T, N384D, M428I), aglycosylated Fc mutant (other)
chain: DKTHTCPPCPAPELLGGPSVFLFPPKPKDTLMISRTPEVTCVVVDVSHEDPEVKFNWYVDGVEVHNAKTKPREEQYNSTYRVVSVLTVLHQDWLNGKEYKCKVSNKALPAPIEKTISKAKGQPREPQVYTLPPSRDELTKNQVSLTCLVKGFYPSDIAVEWTSDGQPENNYKTTPPVLDSDGSFFLYSKLTVDKSRWQQGNVFSCSVIHEALHNHYTQKSLSLSPGK
- FACS mean value [2]: 269

B6: Fc152 (H224R, E382V, S426T, M428S, E430P), aglycosylated Fc mutant (other)
chain: DKTRTCPPCPAPELLGGPSVFLFPPKPKDTLMISRTPEVTCVVVDVSHEDPEVKFNWYVDGVEVHNAKTKPREEQYNSTYRVVSVLTVLHQDWLNGKEYKCKVSNKALPAPIEKTISKAKGQPREPQVYTLPPSRDELTKNQVSLTCLVKGFYPSDIAVEWVSNGQPENNYKTTPPVLDSDGSFFLYSKLTVDKSRWQQGNVFSCTVSHPALHNHYTQKSLSLSPGK
- FACS mean value [2]: 173

B7: Fc100 (other)
Fc chain: DKTHTCPPCPAPELLGGPSVFLFPPKPKDTLMISRTPEVTCVVVDVSHEDPEVKFNWYVDGVEVHNAKTKPREEQYNSTYRVVSVLTVLHQDWLNGKEYKCKVSNKALPAPIEKTISKAKGQPREPQVYTLPPSRDELTKNQVSLTCLVKGFYPSDIAVTWMSEGQPENNYKTTPPVLDSDGSFFLYSKLTVDKSRWQQGNVFSCSVMHEALHNHYTQKSLSLSPGK
- FACS mean value [2]: 138

B8: Fc147 (other)
Fc chain: DKTHTCPPRPAPELLGGPSVFLFPPKPKDTLMISRTPEVTCVVVDVSHEDPEVKFNWYVDGVEVHNAKTKPREEQYNSTYRVVSVLTVLHQDWLNGKEYKCKVSNKALPAPIEKTISKAKGQPREPQVYTLPPSRDELTKNQVSLTCLVKGFYPSDIAVEWVSNGQPENNYKTTPPVLDSDGSFFLYSKLTVDKSRWQQGNVFSCSVIHEALHNHYTQKSLSLSPGK
- FACS mean value [2]: 464

B9: Fc23 (H310Y, K322R, T350A, E382V, S426T, S442P), aglycosylated Fc mutant (other)
chain: DKTHTCPPCPAPELLGGPSVFLFPPKPKDTLMISRTPEVTCVVVDVSHEDPEVKFNWYVDGVEVHNAKTKPREEQYNSTYRVVSVLTVLYQDWLNGKEYKCRVSNKALPAPIEKTISKAKGQPREPQVYALPPSRDELTKNQVSLTCLVKGFYPSDIAVEWVSNGQPENNYKTTPPVLDSDGSFFLYSKLTVDKSRWQQGNVFSCTVMHEALHNHYTQKSLPLSPGK
- M (mean fluorescence intensity) [1]: 335

B10: Fc49 (C229R, E382V, M428I), aglycosylated Fc mutant (other)
chain: DKTHTCPPRPAPELLGGPSVFLFPPKPKDTLMISRTPEVTCVVVDVSHEDPEVKFNWYVDGVEVHNAKTKPREEQYNSTYRVVSVLTVLHQDWLNGKEYKCKVSNKALPAPIEKTISKAKGQPREPQVYTLPPSRDELTKNQVSLTCLVKGFYPSDIAVEWVSNGQPENNYKTTPPVLDSDGSFFLYSKLTVDKSRWQQGNVFSCSVIHEALHNHYTQKSLSLSPGK
notes: also called aglycosylated-Fc49
- M (mean fluorescence intensity) [1]: 409
- Kd [3]: 92 nM
- koff [3]: 0.0023 s⁻¹
- kon [3]: 25000 M⁻¹ s⁻¹

B11: Fc143 (P238S, E382V, S426V, M428L, E430H), aglycosylated Fc mutant (other)
chain: DKTHTCPPCPAPELLGGSSVFLFPPKPKDTLMISRTPEVTCVVVDVSHEDPEVKFNWYVDGVEVHNAKTKPREEQYNSTYRVVSVLTVLHQDWLNGKEYKCKVSNKALPAPIEKTISKAKGQPREPQVYTLPPSRDELTKNQVSLTCLVKGFYPSDIAVEWVSNGQPENNYKTTPPVLDSDGSFFLYSKLTVDKSRWQQGNVFSCVVLHHALHNHYTQKSLSLSPGK
- FACS mean value [2]: 211

B12: Fc151 (E382V, S426I, M428L, E430S), aglycosylated Fc mutant (other)
chain: DKTHTCPPCPAPELLGGPSVFLFPPKPKDTLMISRTPEVTCVVVDVSHEDPEVKFNWYVDGVEVHNAKTKPREEQYNSTYRVVSVLTVLHQDWLNGKEYKCKVSNKALPAPIEKTISKAKGQPREPQVYTLPPSRDELTKNQVSLTCLVKGFYPSDIAVEWVSNGQPENNYKTTPPVLDSDGSFFLYSKLTVDKSRWQQGNVFSCIVLHSALHNHYTQKSLSLSPGK
- FACS mean value [2]: 326

B13: Fc114 (N361S, E382V, M428I), aglycosylated Fc mutant (other)
chain: DKTHTCPPCPAPELLGGPSVFLFPPKPKDTLMISRTPEVTCVVVDVSHEDPEVKFNWYVDGVEVHNAKTKPREEQYNSTYRVVSVLTVLHQDWLNGKEYKCKVSNKALPAPIEKTISKAKGQPREPQVYTLPPSRDELTKSQVSLTCLVKGFYPSDIAVEWVSNGQPENNYKTTPPVLDSDGSFFLYSKLTVDKSRWQQGNVFSCSVIHEALHNHYTQKSLSLSPGK
- FACS mean value [2]: 370

B14: dsbA-FcγRIIa-His (receptor, Homo sapiens, UniProt P12318 34-217, looked up)
receptor chain: QAAAPPKAVLKLEPPWINVLQEDSVTLTCQGARSPESDSIQWFHNGNLIPTHTQPSYRFKANNNDSGEYTCQTGQTSLSDPVHLTVLSEWLVLQTPHLEFQEGETIMLRCHSWKDKPLVKVTFFQNGKSQKFSHLDPTFSIPQANHSHSGDYHCTGNIGYTLFSSKPVTITVQVPSMGSSSPMG
notes: soluble mature form, exported to the E. coli periplasm by the dsbA signal; also called product of pTrcdsbAHis-FcγRIIa
- binding result (Protein A-FITC): no binding

B15: Fc217 (LGDGSPCKAN insertion between N297 and S298), aglycosylated Fc mutant (other)
chain: DKTHTCPPCPAPELLGGPSVFLFPPKPKDTLMISRTPEVTCVVVDVSHEDPEVKFNWYVDGVEVHNAKTKPREEQYNLGDGSPCKANSTYRVVSVLTVLHQDWLNGKEYKCKVSNKALPAPIEKTISKAKGQPREPQVYTLPPSRDELTKNQVSLTCLVKGFYPSDIAVEWESNGQPENNYKTTPPVLDSDGSFFLYSKLTVDKSRWQQGNVFSCSVMHEALHNHYTQKSLSLSPGK
- M (mean fluorescence intensity) [4]: 500

B16: Fc216 (WQVFNKYTKP insertion between N297 and S298), aglycosylated Fc mutant (other)
chain: DKTHTCPPCPAPELLGGPSVFLFPPKPKDTLMISRTPEVTCVVVDVSHEDPEVKFNWYVDGVEVHNAKTKPREEQYNWQVFNKYTKPSTYRVVSVLTVLHQDWLNGKEYKCKVSNKALPAPIEKTISKAKGQPREPQVYTLPPSRDELTKNQVSLTCLVKGFYPSDIAVEWESNGQPENNYKTTPPVLDSDGSFFLYSKLTVDKSRWQQGNVFSCSVMHEALHNHYTQKSLSLSPGK
- M (mean fluorescence intensity) [4]: 496

B17: Fc207 (QLISHYRHLT insertion between N297 and S298), aglycosylated Fc mutant (other)
chain: DKTHTCPPCPAPELLGGPSVFLFPPKPKDTLMISRTPEVTCVVVDVSHEDPEVKFNWYVDGVEVHNAKTKPREEQYNQLISHYRHLTSTYRVVSVLTVLHQDWLNGKEYKCKVSNKALPAPIEKTISKAKGQPREPQVYTLPPSRDELTKNQVSLTCLVKGFYPSDIAVEWESNGQPENNYKTTPPVLDSDGSFFLYSKLTVDKSRWQQGNVFSCSVMHEALHNHYTQKSLSLSPGK
- M (mean fluorescence intensity) [4]: 143

B18: Fc209 (F241L, K326E, EVPLVWMWVS insertion between N297 and S298), aglycosylated Fc mutant (other)
chain: DKTHTCPPCPAPELLGGPSVLLFPPKPKDTLMISRTPEVTCVVVDVSHEDPEVKFNWYVDGVEVHNAKTKPREEQYNEVPLVWMWVSSTYRVVSVLTVLHQDWLNGKEYKCKVSNEALPAPIEKTISKAKGQPREPQVYTLPPSRDELTKNQVSLTCLVKGFYPSDIAVEWESNGQPENNYKTTPPVLDSDGSFFLYSKLTVDKSRWQQGNVFSCSVMHEALHNHYTQKSLSLSPGK
- M (mean fluorescence intensity) [4]: 291

Binder: B19
- binding result (BSA): no binding
